From paper PMC5018250, “Structure of the Bacterial Sex F Pilus Reveals an Assembly of a Stoichiometric Protein-Phospholipid Complex” (Cell, 2016)

Molecular target: the molecule itself
Test: cryo-EM structure; purified F pili in Tris-HCl, 200 mM NaCl, pH 8.0, vitrified; helical reconstruction (IHRSR), two classes with axial rise 12.5 A and 13.2 A, 5.0 A maps

B1: F TraA pilin (natural protein, E. coli (F plasmid; pOX38 in DH5alpha), UniProt P04737 52-121, looked up)
chain: AGSSGQDLMASGNTTVKATFGKDSSVVKWVVLAEVLVGAVMYMMTKNVKFLAGFAIISVFIAVGMAVVGL
notes: TraA pilin of the F pilus encoded by the F plasmid derivative pOX38; N terminus 4 aa longer than that of pED208 TraA and disordered in the maps; Stands in the pilus as a helical polymer; two filament populations (axial rise 12.5 A and 13.2 A); also called F pilin; F pilus subunit; source: produced in vivo from the pOX38-Cm plasmid in E. coli DH5alpha
B1: binds.
